# In patent US8962697B2, “Bioreponsive polymers” (Interface Biologics Inc., priority 2006, dated 2015):
# How the values were obtained:
# MMP-9 = target: T1, MMP-9 (Homo sapiens, UniProt P14780); assay: MMP-9 bioresponsive degradation assay; format: biochemical; conditions: 100 nM MMP-9, 1 mM substrate, room temperature, 3 hr
# T1 construct: purchased Chemicon, Temecula, Calif
# Description: The hydrolysis of the substrates were done in MMPs activation buffer. […] 100 nM MPP-9 was added in this activating buffer and incubated at 37° C. for 4 hr. to activate enzyme. After activating, the 1 mM substrates were added to be hydrolysis at room temperature for 3 hr.
# V8 proteinase = V8 proteinase (Staphylococcus aureus, UniProt P0C1U8); conditions: 100 nM V8 proteinase, 1 mM substrate, 37° C., 3 hr
# V8 proteinase, sequence (P0C1U8 69-336): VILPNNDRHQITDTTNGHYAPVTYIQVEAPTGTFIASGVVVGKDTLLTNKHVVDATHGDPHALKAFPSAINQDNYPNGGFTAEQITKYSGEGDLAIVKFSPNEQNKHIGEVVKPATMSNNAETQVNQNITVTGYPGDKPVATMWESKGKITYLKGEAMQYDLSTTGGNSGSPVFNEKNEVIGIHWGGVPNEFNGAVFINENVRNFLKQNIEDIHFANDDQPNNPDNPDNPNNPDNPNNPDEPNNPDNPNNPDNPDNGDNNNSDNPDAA
# Description: The hydrolysis of the substrate was performed in V8 proteinase activation buffer. The buffer contains 100 mM Tris-HCL, 1 mM CaCl2, pH 7.8, and 10 mM o-phenanthroline. 100 nM V8 proteinase and 1 mM substrate were added in the buffer, and then incubated at 37° C. for 3 hr.
# (§1) All control degradation profiles was conducted as outlined in EXAMPLE 22 through EXAMPLE 26 utilizing the control peptides […] and PRRICV, identified as LAR-7047 and LAR-7048 respectively, as substrates.
# aureolysin = aureolysin (Staphylococcus aureus, UniProt P81177); conditions: 100 nM aureolysin, 1 mM substrate, 37° C., 3 hr
# aureolysin, sequence (P81177 209-509): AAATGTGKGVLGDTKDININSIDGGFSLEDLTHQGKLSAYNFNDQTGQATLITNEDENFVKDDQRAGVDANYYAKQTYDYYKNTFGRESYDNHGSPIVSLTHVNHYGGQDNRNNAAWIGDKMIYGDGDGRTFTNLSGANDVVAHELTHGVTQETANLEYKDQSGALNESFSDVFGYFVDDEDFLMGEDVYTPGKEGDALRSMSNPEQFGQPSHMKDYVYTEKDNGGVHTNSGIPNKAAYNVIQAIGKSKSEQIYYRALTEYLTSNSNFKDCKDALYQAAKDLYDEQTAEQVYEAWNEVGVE
# Description: The hydrolysis of the substrate was performed in aureolysin activation buffer. The buffer contains 100 mM Tris-HCL, 1 mM CaCL2, pH 7.8, and 1 mM 3,4-dichloroisoumarine. 100 nM aureolysin and 1 mM substrate were added in the buffer, and then incubated at 37° C. for 3 hr.
# as §1
# T1 sequence (P14780 107-707 limits assumed): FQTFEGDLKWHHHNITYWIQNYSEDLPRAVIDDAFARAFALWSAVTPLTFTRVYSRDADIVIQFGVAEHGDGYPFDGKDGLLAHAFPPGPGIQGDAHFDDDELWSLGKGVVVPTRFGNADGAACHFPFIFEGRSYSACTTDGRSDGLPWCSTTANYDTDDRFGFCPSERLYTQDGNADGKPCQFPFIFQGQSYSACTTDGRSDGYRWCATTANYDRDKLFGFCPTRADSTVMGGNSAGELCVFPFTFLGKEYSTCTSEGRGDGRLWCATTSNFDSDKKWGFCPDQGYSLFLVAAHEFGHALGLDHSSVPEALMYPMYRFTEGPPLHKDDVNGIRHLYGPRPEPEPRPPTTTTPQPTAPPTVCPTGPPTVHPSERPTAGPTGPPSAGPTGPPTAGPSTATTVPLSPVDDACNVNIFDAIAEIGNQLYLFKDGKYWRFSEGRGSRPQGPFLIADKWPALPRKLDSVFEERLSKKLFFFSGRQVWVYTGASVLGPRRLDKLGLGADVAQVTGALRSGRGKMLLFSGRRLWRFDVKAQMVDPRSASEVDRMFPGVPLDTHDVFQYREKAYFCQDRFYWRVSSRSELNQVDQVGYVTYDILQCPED
Substance,Degradation of peptide substrate by MMP-9 (fragment observed) (MMP-9),Degradation of peptide substrate by V8 proteinase (V8 proteinase),Degradation of peptide substrate by aureolysin (aureolysin)
Pro-arg-arg-ile-sys-val (PRRICV) [LAR-7048],No degradation,No degradation,No degradation
"Pro-arg-arg-arg-arg-pro-arg-gln-ile-thr-ala (PRRRRPRQITA) [LAR-7009, peptide targeted to MMP-9 (inflammation)]",produced specific fragment pick: 1121.66 corresponding to PRRRRPRQ sequence,,
val-phe-phe-arg-arg-gln-thr-ala (VFFRRQTA) [LAR-7047],No degradation,No degradation,No degradation
